Measured values taken from PMC10953011, “Oxygen‐insensitive nitroreductase E. coli NfsA, but not NfsB, is inhibited by fumarate” (Proteins, 2022).

How the values were obtained:
[1] = substrate: NC(=O)N/N=C/c1ccc([N+](=O)[O-])o1; assay: purified protein; type: biochemical, Escherichia coli; settings: FMN; pH 7.0; 25.0 °C
[2] = substrate: NC(=O)C1=CN([C@@H]2O[C@H](COP(=O)(O)OP(=O)(O)OC[C@H]3O[C@@H](n4cnc5c(N)ncnc54)[C@H](OP(=O)(O)O)[C@@H]3O)[C@@H](O)[C@H]2O)C=CC1; assay: purified protein; type: biochemical, Escherichia coli; settings: FMN; pH 7.0; 25.0 °C

B1: NfsA (Escherichia coli K-12) (protein)
chain: MTPTIELICGHRSIRHFTDEPISEAQREAIINSARATSSSSFLQCSSIIRITDKALREELVTLTGGQKHVAQAAEFWVFCADFNRHLQICPDAQLGLAEQLLLGVVDTAMMAQNALIAAESLGLGGVYIGGLRNNIEAVTKLLKLPQHVLPLFGLCLGWPADNPDLKPRLPASILVHENSYQPLDKGALAQYDEQLAEYYLTRGSNNRRDTWSDHIRRTIIKESRPFILDYLHKQGWATR
notes: untagged full-length
- Km [1]: 27 ± 6 µM
- kcat [1]: 25 ± 2 s⁻¹
- kcat/Km [1]: 930000 ± 100000 M⁻¹ s⁻¹
- Km [2]: 29 ± 6 µM
- kcat [2]: 25 ± 2 s⁻¹
- kcat/Km [2]: 860000 ± 100000 M⁻¹ s⁻¹
